Key:
[1] = target: T1, human PD-1 expressed on CHO cells (human, UniProt Q15116 21-288); assay: FMAT/Mirrorball on CHO huPD1 cells
T1 construct: also called CHO huPD1; CHO human PD1 cells
Summary of the method: (§1)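 His-tagged VH molecules bound to CHO cells expressing human PD-1 or human CD137, with CHO parent cells as control, in PBS pH 7.4, 0.1% BSA, 0.05% sodium azide. Read by FMAT on Mirrorball (ex 488/640 nm); binding taken as FL2 median fluorescence intensity of FL5-gated events.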

[2] = target: T2, human CD137 expressed on CHO cells (human, UniProt Q07011 18-255); assay: flow cytometry on CHO huCD137 cells
T2 construct: also called CHO huCD137; CHO human CD137 cells

[3] = target: T2, human CD137 expressed on CHO cells; assay: FMAT/Mirrorball on CHO huCD137 cells
Summary of the method: as §1

[4] = target: human CD137 expressed on cells (Jurkat human CD137 NF-kB luciferase reporter cells; human CD8+ T cells) (human, UniProt Q07011 24-255); assay: cell-based or functional assay
[5] = target: T3, recombinant Fc-tagged ectodomain of human CD137 (Acro Biosystems 41B-H5258) (human, UniProt Q07011 24-186); assay: SPR, Biacore 8K, single-cycle kinetics; Fc-tagged ectodomain captured on Protein G chip; 1:1 model
T3 construct: Bought protein; not shown: Fc tag
Description: (§2) Binding of Humabody® VH constructs was measured using a single-cycle kinetics method using the BIAcore 8K instrument with 90 second sample injections with a sample concentration range of low nanomolar to high nanomolar. […] The Protein G sensor surface was regenerated with a 20 second injection of 10 mM Glycine buffer, pH 1.5 (GE Healthcare BR100354). Data were analysed using a 1:1 binding model in Biacore Insight Evaluation software, including Humabody® VH constructs with two PD-1 arms.

[6] = target: T4, recombinant Fc-tagged ectodomain of human PD1 (Acro Biosystems PD1-H5257) (human, UniProt Q15116 25-170); assay: as above
T4 construct: Bought protein; not shown: Fc tag
Description: as §2

[7] = target: T5, recombinant Fc-tagged ectodomain of cynomolgus CD137 (R&D S9324-4b) (cynomolgus macaque, UniProt A9YYE7 24-186); assay: as above
T5 construct: Bought protein; also called Cyno CD137; cynomolgus macaque CD137; not shown: Fc tag and any linker to it
Description: as §2

[8] = target: T6, recombinant Fc-tagged ectodomain of cynomolgus PD1 (Acro Biosystems PD1-C5254) (cynomolgus macaque, UniProt B0LAJ3 25-170); assay: as above
T6 construct: Bought protein; also called Cyno PD1; cynomolgus macaque PD1; not shown: Fc tag and any linker to it
Description: as §2

[9] = target: T1, human PD-1 expressed on CHO cells; assay: flow cytometry on CHO huPD1 cells
[10] = target: T7, human CD137-Fc recombinant protein (Acro Biosystems 41B-H5258) (human, UniProt Q07011 24-186); assay: BLI (Octet RED384), CD137-Fc on Protein G sensor, 1:1 model
T7 construct: Bought protein; The Octet paragraph gives no catalogue number for its human CD137-Fc; also called hCD137-Fc; CD137-Fc tagged protein
Description: (§3) Binding kinetics of purified monovalent VH molecules were measured on a ForteBio Octet RED 384 instrument. Human and Rhesus CD137-Fc tagged protein was diluted to 5 μg/ml in kinetics buffer (0.05% Tween, 1×PBS) and coupled to Protein G biosensors (ForteBio cat no. 18-5082) via the Fc tag. VH were serially diluted (typically 1:2 dilution series starting with 200 nM, VH at the highest concentration) and binding to the CD137-Fc-coupled Protein G biosensors measured. Binding kinetics were determined from the (blank subtracted) sensor gram trace using 1:1 binding models and ForteBio Octet Data Analysis 9.0 software. Example kinetic and binding affinity data obtained is shown Table 18 (monovalent VH).

[11] = target: T8, Rhesus CD137-Fc tagged protein (rhesus, UniProt H9Z8K9 24-186); assay: as above
T8 construct: extracellular domain; The Octet paragraph gives no catalogue number; also called rhCD137-Fc
Description: as §3

EC50 [3] [nM]	EC50 [9] [nM]	Kd [10] [nM]	koff [10] [s⁻¹]	kon [10] [M⁻¹ s⁻¹]	Kd [11] [nM]	koff [11] [s⁻¹]	kon [11] [M⁻¹ s⁻¹]	Binder	other results
0.171	–	–	–	–	–	–	–	TPP-969: PDA-6GS-HSA2-6GS-172E1-13-His (bispecific antibody, Single-chain VH fusion (PD-1 VH, HSA VH, CD137 VH), His tag) EVQLVESGGGLVQPGRSLRLSCAASGFTFDDYALHWVRQAPGKDLEWVSGISWNGGSYGYADSVKGRFTISRDNAKNSLYLQMNSLRAEDTALYYCVREKGPGLTGSTADYYGLDAWGQGTMVTVSSGGGGSGGGGSGGGGSGGGGSGGGGSGGGGSEVQLVESGGGLVKPGGSLRLSCAASGFTFSNYNMNWVRQAPGKGLEWVSSISSAGTHIYYADSVKGRFTISRDNAKNSLYLQMNSLRAEDTAVYYCARDPHSTGWYKDFDYWGQGTLVTVSSGGGGSGGGGSGGGGSGGGGSGGGGSGGGGSEVQLVESGGGVVQPGGSLRLSCAASGFTFSNYGMHWVRQAPGKGLEWVAVISNDGNTKTYADSVKGRFTISRDNSKNTLYLQMNSLRAEDTAVYYCAQDETTTVTASYYFDYWGQGTLVTVSSAAAHHHHHH	EC50 [1]: 0.142 nM; EC50 [2]: 11.6 nM
–	–	–	–	–	–	–	–	TPP-1247 CD137A-6GS-HSA3-6GS-PD138G7(G109D) (bispecific antibody) EVQLVESGGGLVQPGGSLRLSCAASGFTLSNYWMNWVRQAPGKGLEWVANINQDGSERYYVDSVKGRFTISRDNAKNSLYLQMNSLRAEDTAVYYCARGGEGYGVDHYGLDVSGQGTTVTVSSGGGGSGGGGSGGGGSGGGGSGGGGSGGGGSEVQLLESGGGLVKPGGSLRLSCAASGFTVSSYTMNWVRQAPGKGLEWVSSISSSGRYIYYADSVKGRFTISRDNAKNSLYLQMNSLRAEDTAVYYCARDPRMVGNPHEFDIWGQGTMVTVSSGGGGSGGGGSGGGGSGGGGSGGGGSGGGGSEVQLVESGGGVVRPGGSLRLSCAASGFTFDDYAMSWVRQAPGKGLEWVSGITWNGGSTGYADSVKDRFTISRDNAKNSLYLQMNSLRAEDTALYYCVRDKYSYAWSYDDFDIWGQGTMVTVSS	Jurkat-CD137/CHO-PD-1 Reporter Assay EC50 [4]: 0.0583 nM; Kd [5]: 0.295 nM; koff [5]: 9.85e-05 s⁻¹; kon [5]: 334000 M⁻¹ s⁻¹; Kd [6]: 7.77 nM; koff [6]: 0.00214 s⁻¹; kon [6]: 276000 M⁻¹ s⁻¹; Kd [7]: 0.543 nM; koff [7]: 0.00017 s⁻¹; kon [7]: 313000 M⁻¹ s⁻¹; Kd [8]: 16.9 nM; koff [8]: 0.00494 s⁻¹; kon [8]: 293000 M⁻¹ s⁻¹
–	–	–	–	–	–	–	–	TPP-1245 CD137A-6GS-PDA2-6GS-HSA2 (bispecific antibody) EVQLVESGGGLVQPGGSLRLSCAASGFTLSNYWMNWVRQAPGKGLEWVANINQDGSERYYVDSVKGRFTISRDNAKNSLYLQMNSLRAEDTAVYYCARGGEGYGVDHYGLDVSGQGTTVTVSSGGGGSGGGGSGGGGSGGGGSGGGGSGGGGSEVQLVESGGGVVRPGGSLRLSCAASGFTFDDYAMSWVRQAPGKGLEWVSGITWNAGSTGYADSVKGRFTISRDNAKNSLYLQMNSLRAEDTALYYCVRDKYSYAWSYDDFDIWGQGTMVTVSSGGGGSGGGGSGGGGSGGGGSGGGGSGGGGSEVQLVESGGGLVKPGGSLRLSCAASGFTFSNYNMNWVRQAPGKGLEWVSSISSAGTHIYYADSVKGRFTISRDNAKNSLYLQMNSLRAEDTAVYYCARDPHSTGWYKDFDYWGQGTLVTVSS [TPP-1245 CD137A-6GS-PDA2-6GS-HSA2, listing 1 of 2 here]	Jurkat-CD137/CHO-PD-1 Reporter Assay EC50 [4]: 0.113 nM; Kd [5]: 0.471 nM; koff [5]: 0.000179 s⁻¹; kon [5]: 381000 M⁻¹ s⁻¹; Kd [6]: 87.6 nM; koff [6]: 0.0762 s⁻¹; kon [6]: 869000 M⁻¹ s⁻¹; Kd [7]: 0.728 nM; koff [7]: 0.000263 s⁻¹; kon [7]: 361000 M⁻¹ s⁻¹; Kd [8]: 102 nM; koff [8]: 0.0505 s⁻¹; kon [8]: 493000 M⁻¹ s⁻¹
–	183	–	–	–	–	–	–	TPP-1245 CD137A-6GS-PDA2-6GS-HSA2 (bispecific antibody) EVQLVESGGGLVQPGGSLRLSCAASGFTLSNYWMNWVRQAPGKGLEWVANINQDGSERYYVDSVKGRFTISRDNAKNSLYLQMNSLRAEDTAVYYCARGGEGYGVDHYGLDVSGQGTTVTVSSGGGGSGGGGSGGGGSGGGGSGGGGSGGGGSEVQLVESGGGVVRPGGSLRLSCAASGFTFDDYAMSWVRQAPGKGLEWVSGITWNAGSTGYADSVKGRFTISRDNAKNSLYLQMNSLRAEDTALYYCVRDKYSYAWSYDDFDIWGQGTMVTVSSGGGGSGGGGSGGGGSGGGGSGGGGSGGGGSEVQLVESGGGLVKPGGSLRLSCAASGFTFSNYNMNWVRQAPGKGLEWVSSISSAGTHIYYADSVKGRFTISRDNAKNSLYLQMNSLRAEDTAVYYCARDPHSTGWYKDFDYWGQGTLVTVSS [TPP-1245 CD137A-6GS-PDA2-6GS-HSA2, listing 2 of 2 here]	EC50 [2]: 4.4 nM
1.35	–	17.8	0.00214	120000	21.9	0.00267	122000	003BB172-E01-1 (VHH, Human VH single domain antibody, monovalent) VHH: EVQLVESGGGLVQPGGSLRLSCAASGFTFSNYGMHWVRQAPGKGLEWVAVISNDGNTKTYADSVKGRFTISRDNSKNMLYLQMTSLRTEDTAVYYCAQDETTTVTASYYFDYWGQGTLVTVSS	–
1.74	–	18.6	0.00137	73200	25.9	0.00159	61300	003BB172-E01-2 (VHH, Human VH single domain antibody, monovalent) VHH: EVQLVESGGGLVQPGGSLRLSCAASGFTFSNYGMHWVRQAPGKRLEWVAVISNDGNTKTYADSVKGRFTISRDNSKNTLYLQMTSLRTEDTAVYYCAQDETTTVTASYYFDYWGQGTLVTVSS	–
1.33	–	25.7	0.00184	71600	32.2	0.00216	67100	003BB172-E01-4 (VHH, Human VH single domain antibody, monovalent) VHH: EVQLVESGGGLVQPGGSLRLSCAASGFTFSNYGMHWVRQAPGKGLEWVAVISNDGNTKTYADSVKGRFTISRDNSKNTLYLQMTSLRTEDTAVYYCAQDETTTVTASYYFDYWGQGTLVTVSS	–
1.06	–	24.5	0.00161	66000	24.8	0.00157	55300	003BB172-E01-3 (VHH, Human VH single domain antibody, monovalent) VHH: EVQLVESGGGLVQPGGSLRLSCAASGFTFSNYGMHWVRQAPGKRLEWVAVISNDGNTKTYADSVKGRFTISRDNSKNMLYLQMNSLRTEDTAVYYCAQDETTTVTASYYFDYWGQGTLVTVSS	–
0.0533	33	–	–	–	–	–	–	TPP-972: CD137A-6GS-PDA-6GS-HSA2-His (bispecific antibody, Single-chain VH fusion (CD137 VH, PD-1 VH, HSA VH), His tag) EVQLVESGGGLVQPGGSLRLSCAASGFTLSNYWMNWVRQAPGKGLEWVANINQDGSERYYVDSVKGRFTISRDNAKNSLYLQMNSLRAEDTAVYYCARGGEGYGVDHYGLDVSGQGTTVTVSSGGGGSGGGGSGGGGSGGGGSGGGGSGGGGSEVQLVESGGGLVQPGRSLRLSCAASGFTFDDYALHWVRQAPGKDLEWVSGISWNGGSYGYADSVKGRFTISRDNAKNSLYLQMNSLRAEDTALYYCVREKGPGLTGSTADYYGLDAWGQGTMVTVSSGGGGSGGGGSGGGGSGGGGSGGGGSGGGGSEVQLVESGGGLVKPGGSLRLSCAASGFTFSNYNMNWVRQAPGKGLEWVSSISSAGTHIYYADSVKGRFTISRDNAKNSLYLQMNSLRAEDTAVYYCARDPHSTGWYKDFDYWGQGTLVTVSSAAAHHHHHH	EC50 [1]: 0.15 nM
–	44.8	–	–	–	–	–	–	TPP-1293 (PDBlocker1.92-6GS- CD137A -6GS-HSA2) (bispecific antibody) EVQLVESGGGLVKPGGSLRLSCAASGFTFSDESMTWMRQAPGKGLEWVSYISSGGGVKFYADSVKGRFTISRDNAKNSLYLQMNSLRAEDTAVYYCAREAPLRLGESPHDAFDISGQGTMVTVSSGGGGSGGGGSGGGGSGGGGSGGGGSGGGGSEVQLVESGGGLVQPGGSLRLSCAASGFTLSNYWMNWVRQAPGKGLEWVANINQDGSERYYVDSVKGRFTISRDNAKNSLYLQMNSLRAEDTAVYYCARGGEGYGVDHYGLDVSGQGTTVTVSSGGGGSGGGGSGGGGSGGGGSGGGGSGGGGSEVQLVESGGGLVKPGGSLRLSCAASGFTFSNYNMNWVRQAPGKGLEWVSSISSAGTHIYYADSVKGRFTISRDNAKNSLYLQMNSLRAEDTAVYYCARDPHSTGWYKDFDYWGQGTLVTVSS	–
